Assay [1] concerns the target Monomannosylated BSA (monomannose conjugated to bovine serum albumin) (bovine) (UniProt P02769).
Assay [2] has the same target. As to the kind of experiment: parallel plate flow chamber; new bacteria appearing on 1Man-BSA surface.

Monomannosylated BSA (monomannose conjugated to bovine serum albumin) (bovine), sequence (P02769 25-607 limits assumed): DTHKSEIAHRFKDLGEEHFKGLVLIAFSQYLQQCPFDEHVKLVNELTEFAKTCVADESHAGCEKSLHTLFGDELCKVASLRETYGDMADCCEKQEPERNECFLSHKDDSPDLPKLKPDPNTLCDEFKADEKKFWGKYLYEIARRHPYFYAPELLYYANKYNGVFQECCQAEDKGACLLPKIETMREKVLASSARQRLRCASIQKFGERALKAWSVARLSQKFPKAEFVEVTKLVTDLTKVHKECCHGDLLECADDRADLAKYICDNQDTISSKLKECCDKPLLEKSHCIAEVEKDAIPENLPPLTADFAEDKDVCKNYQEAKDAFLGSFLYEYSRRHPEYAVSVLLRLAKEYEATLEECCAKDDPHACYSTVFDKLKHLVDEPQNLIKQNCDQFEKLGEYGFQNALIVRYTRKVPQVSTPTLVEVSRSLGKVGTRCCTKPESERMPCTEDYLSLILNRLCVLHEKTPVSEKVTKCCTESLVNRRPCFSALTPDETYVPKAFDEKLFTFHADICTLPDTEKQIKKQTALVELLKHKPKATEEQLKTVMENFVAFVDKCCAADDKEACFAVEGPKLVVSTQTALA

In assay [1], “FimH-f18 (FimH adhesin variant of intestinal E. coli strain F18), in type I fimbriae on recombinant E. coli (from UniProt P08191 22-300)” came in with a first-order rate constant of the decline of stationary bacteria of 3 s⁻¹. In assay [2], this substance displayed an initial attachments per minute in the field of view, at 0.5 dynes/cm^2 (attachments per minute) of 102; an initial attachments per minute in the field of view, at 3.6 dynes/cm^2 (attachments per minute) of 64; an initial attachments per minute in the field of view, at 7 dynes/cm^2 (attachments per minute) of 32.

The record behind these values is US20090325259A1, “USE OF ADHESION MOLECULES AS BOND STRESS-ENHANCED NANOSCALE BINDING SWITCHES” (priority 2002, published 2009).
